According to US7329410:

What follows are binders tested against Mouse MHC Class I (mouse B6 class I antigens; D^b or K^b molecules on the surface of RMA-S cells) (mouse) (assay: binding of 9mer peptide to mouse B6 (H-2^b) class I antigens; RMA-S cell assay as for Table XLVII).

FPNAPYLPS [WT1 peptide P128-136 …] and ASSGQARMF [WT1 peptide P120-128 …] are the same in Binding Affinity to Mouse MHC Class I: 1% for the first, 1% for the second.

First: QARMFPNAP [WT1 peptide P124-132 …]
Second: NAPYLPSCL [WT1 peptide P130-138 …]
The Binding Affinity to Mouse MHC Class I of the first is lower: 1% for the first, 79% for the second.

SSGQARMFP [WT1 peptide P121-129 …] and PNAPYLPSC [WT1 peptide P129-137 …] are the same in Binding Affinity to Mouse MHC Class I: 1% for the first, 1% for the second.

Going from ARMFPNAPY [WT1 peptide P125-133 …] to QASSGQARM [WT1 peptide P119-127 …], the Binding Affinity to Mouse MHC Class I rises from 1% to 2%.

PSQASSGQA [WT1 peptide P117-125 …] and SQASSGQAR [WT1 peptide P118-126 …] are the same in Binding Affinity to Mouse MHC Class I: 2% for the first, 2% for the second.

First: APYLPSCLE [WT1 peptide P131-139 …]
Second: MFPNAPYLP [WT1 peptide P127-135 …]
The Binding Affinity to Mouse MHC Class I of the first is lower: 1% for the first, 2% for the second.

The binders below were run against Mouse MHC Class I (mouse B6 class I antigens; D^b or K^b molecules on the surface of RMA-S cells) (mouse) (assay: RMA-S cells incubated with peptide 25 ug/ml, stained with FITC anti-D^b or anti-K^b, flow cytometry; increase in MFI over medium alone).

Going from ALLPAVPSL [WT1 peptide human p10-18 …] to SCLESQPAI [WT1 peptide human p136-144 …], the Binding Affinity to Mouse MHC Class I (percent increase of D^b or K^b on RMA-S cells) rises from 2.2% to 52%.

First: NQMNLGATL [WT1 peptide p239-247 …]
Second: GCNKRYFKL [WT1 peptide p329-337 …]
The Binding Affinity to Mouse MHC Class I (percent increase of D^b or K^b on RMA-S cells) of the first is lower: 1% for the first, 1.2% for the second.

Going from CMTWNQMNL [WT1 peptide p235-243 …] to YSSDNLYQM [WT1 peptide p221-229 …], the Binding Affinity to Mouse MHC Class I (percent increase of D^b or K^b on RMA-S cells) falls from 33.6% to 0.8%.

Going from QMTSQLECM [WT1 peptide p228-236 …] to NLYQMTSQL [WT1 peptide p225-233 …], the Binding Affinity to Mouse MHC Class I (percent increase of D^b or K^b on RMA-S cells) rises from 1.2% to 5.8%.
